Results on two molecules are retold here after paper PMC12150503 (Cell Communication and Signaling : CCS, 2025).

Numbering of substitutions follows the chain as printed. Names and notes keep the numbering of the source.

In the assay the target is T1, His-mouse IKKβ (purified) (mouse, UniProt O88351 1-757).
T1 sequence (looked up): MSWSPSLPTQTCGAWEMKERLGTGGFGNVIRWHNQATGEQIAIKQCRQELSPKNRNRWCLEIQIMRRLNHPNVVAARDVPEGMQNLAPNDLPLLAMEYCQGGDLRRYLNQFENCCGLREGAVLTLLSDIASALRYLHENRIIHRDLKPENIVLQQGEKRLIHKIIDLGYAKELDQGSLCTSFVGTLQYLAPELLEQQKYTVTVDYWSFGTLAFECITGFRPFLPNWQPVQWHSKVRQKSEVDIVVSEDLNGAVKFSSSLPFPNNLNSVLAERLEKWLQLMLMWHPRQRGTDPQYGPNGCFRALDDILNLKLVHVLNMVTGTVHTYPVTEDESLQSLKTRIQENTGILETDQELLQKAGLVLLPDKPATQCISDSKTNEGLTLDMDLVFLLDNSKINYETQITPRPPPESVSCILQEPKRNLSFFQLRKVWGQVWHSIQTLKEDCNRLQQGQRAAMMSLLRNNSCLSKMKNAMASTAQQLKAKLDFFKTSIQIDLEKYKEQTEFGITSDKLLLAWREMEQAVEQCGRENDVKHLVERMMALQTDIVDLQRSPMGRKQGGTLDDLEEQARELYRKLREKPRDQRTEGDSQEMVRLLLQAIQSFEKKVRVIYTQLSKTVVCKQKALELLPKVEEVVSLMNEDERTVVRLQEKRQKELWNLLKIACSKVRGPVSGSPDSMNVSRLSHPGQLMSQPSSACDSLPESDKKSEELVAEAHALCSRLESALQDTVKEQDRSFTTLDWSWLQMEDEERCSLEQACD
The assay can be described thus: pull-down.

B1: GST-mouse RMP-WT (natural protein, UniProt Q3TLD5 1-531, looked up)
chain: MEPPSEPEPEPQPLAEASAAAPLRAPEVARLREEQEKVVTNCQEKIQHWEKVDNDYSALQERLRTLPDKLSYDVMVPFGPLAFMPGKLVHTNEVTVLLGDNWFAKCSAKQAVGLVEHRKEHVRKTIDDFKKVLKNFESRVEFTEDLQKMSDAAGDFVDIREEIKSDFEFKGKQRIAHKPHSKPKTSDIFEADFENGVKPKNTFDADELWARLEELERQEELLGELESKPDTVIANGEDRVSSEEEKEGADTGVNVVSPVTDSSAASSCKRRAGNAGLPNGQVNSLNYSVNGSNSYHSNKDDDEEEEDDDDDDDEDDDNESDHAISADNSIPTIYFSHTVEPKRVRINTGKNTTLKFSEKKEEAKRKRKSGAGSHATHELPAIKSPADIYRVFVDVVNGEYVPRKSILKSRSRENSVCSDTSESSAADVEDRRGLLRSTSSEEAVATEAGGSSLDELQENHPKKPLPSGVSEAFSGTVIEKEFLSPSLAPYSAIAHHALPTIPERKEVPSEVSEEPTKRVSKFRAARLQQRS
Consider B1, for which the binding result was “binds”.

B2: GST-mouse RMP-S439A (natural protein, UniProt Q3TLD5 1-531, looked up)
chain: B1 chain with S439A
Regarding B2, the binding result is listed as “binds”.
